These results are taken from the DeepSol protein solubility set.

The nature of the series: soluble on expression in E. coli; label from the status in PepcDB or PDB records.
Consider “MAHVVILGAGTGGMPAAYEMKEALGSGHEVTLISANDYFQFVPSNPWVGVGWKERDDIAFPIRHYVERKGIHFIAQSAEQIDAEAQNITLADGNTVHYDYLMIATGPKLAFENVPGSDPHEGPVQSICTVDHAERAFAEYQALLREPGPIVIGAMAGASAFGPAYEYAMIVASDLKKRGMRDKIPSFTFITSEPYIGHLGIQGVGDSKGILTKGLKEEGIEAYTNCKVTKVEDNKMYVTQVDEKGETIKEMVLPVKFGMMIPAFKGVPAVAGVEGLCNPGGFVLVDEHQRSKKYANIFAAGIAIAIPPVETTPVPTGAPKTGYMIESMVSAAVHNIKADLEGRKGEQTMGTWNAVCFADMGDRGAAFIALPQLKPRKVDVFAYGRWVHLAKVAFEKYFIRKMKMGVSEPFYEKVLFKMMGITRLKEEDTHRKAS”, for which the “soluble on expression in E. coli” value was “soluble”. For the sequence “MNLNYKFERLYRVLFNEEMFYVAYQNIYSKTGNMTAGADGKTIDGMSIDRVEQLIGSLKNETYQPNPSKRTYIPKKNGKKRPLGIPSFDDKLVQEVVRMILEAIYEGSFEHTSHGFRPKRSCHTALIDIQKTFTAVKWFIEGDIKGFFDNINHDVLINILRERIADERFLRLIRKFLNAGYVEDWVFHRTYSGTPQGGIISPILANIYLDKFDKYIKEYINRFNKGVTRKGDARYKLYEQRRYRLAKKLKNEKDVKVRKQMTAEIKRLREERNNYPARNEMDSSIKRLKYVRYADDFLIGITGNLEDCKTVKEDIKNYLNEALKLELSDEKTLITNAQKPAKFLGYDVFIRRCNDLRKDKYGKTVRAFGHKPVLYLNFETMRKKLFDYKAARIAVVNGKEVWKSIVRTYMLNLDDLEIVSQFNAEIRGFYNYYSIANNSYVINSFYHIMSYSMYKVFANKYKSSVKKILLKYKKNKVFQVAYENSKGKTLYQSFYHDGFKRKKVAGNIYCDTIPRTVSITGGRNSLMERLKLQVCELCGATDKLEMHHVRKLKDLKGKSDWEKKMIARRRKTLAVCSKCHAKIDPDRRIRLNLEHHHHHH”, the “soluble on expression in E. coli” value is on record as “not soluble”. Consider “MGSDKIHHHHHHMSNHAIPARLQLRHITKRYPGCLANDAVDLTIQPGEIHALLGENGAGKSTLMKIIYGVTQPDAGSIIWQGQAQIMRNPAQARSLGIGMVFQHFSLFETLSVAQNIALAMGAAAGTPRQLEPRIREVSQRYGMAVEPQRLVHSLSIGERQKVEIIRCLMQDIHLLILDEPTSVLTPQEAEELFVTLRHLASEGCSILFISHKLGEVRALCHSATVLRNGKVSGHCIPAECSDLELARLMVGDAEGLTAHYEKVSGGAAFLQVDRLSWHNPDPFGCSLKDLSLEVCSGEIVGIAGVAGNGQDELLALLSGEQTLPHAQAATLRFANTPVGHLRPDARRKRGLAFVPAERLGHGAVPELSLADNALLTAFQQGLVSNGLIQRGKARALADEIIRRFAVKTPDAQAPARSLSGGNLQKFILGREILQNPKLLIAAHPTWGVDVGAAAAIHRALIALRDAGAAILVISEDLDELFQISDRLAALSGGQLSDLIPTEQTSTVQIGGWMAGQFDHSQTQAHTPG”, for which the “soluble on expression in E. coli” value is “not soluble”. Next, “MSLGILRQAHWRNPSLERSPALILAHGCFEDVHGKVAHGLVRGTDRFDIVAVIDPDCAGHDAGTLLDGRPRNIPVFASIEAALAQGRRRPAVAIVGMATHGGRFTETLRAALFEAAAAGLSLVNGLHDLAGDDPEIAAETARHGASILDLRRPRAVAELHFWTGQIHGVAAPRIAVLGTDCALGKRTTARLLTQALNADGIRTEMIYTGQTGWMQGGRYGFILDALPNDFVSGELEHAILTCYREVRPDLIILEGQSALRNPSGPCGAELLLSGAAAGVILQHAPGRRHYDGFEGSRFRIPPVEDEIRLIEHYGVPVLGVSLNGRDSGPEGLREAQRRLARTLDVPVVCPLEDGVTDLLPPLRALLEREEVAEGHHHHHH”: “soluble”; “MGSDKIHHHHHHMSFISKGAKIGENLKIGRNVVIEDGVVIGNNVMIGHNVVIRDGTIVGDNCVIFDGTVLGKLPFKSAISAVTEEKEFPPLKIGNGVTIGANCVIYRGSVLEDFVFVGDLVVIREDVKIGPYTVIGKGVTVENRTTIGRYVKIETNAYITALSTIEDYCFIAPEVTFTNDNFLGRTEERKKFFKGPTLKKGARIGANATILPGVVVGEDALVAAGSVVTRDVPDRKIVMGIPARVVRDVPEEQLLDNQSYYKEESS”: “not soluble”; “MPNDLPFDLRPSRRTVTMGLAAGVAAALLPWRAQALDTGTARALVVEAVAQVNRTINSGKSEGQMYADFERLFARYADVPAIARTALGVAARSASRQEISAFTQAYQGYIARKYGKRFREFIGSEIKVNDARPMKSAVEVISTAYLRNENPFEVRWHVSDRSGRPAFFNIIIEGVNMLASERAEVGALLDRNRGSIPALTEQLRRASLEHHHHHH”: “not soluble”. Next, “MGSDKIHHHHHHMKSRFLLKIFIFLAVFGVDSVRAADCTEKTFKTGTVCVCSLDSCDEIPPLDITMGQAALYTTSHTGARLHRDVIYATDTEPFGTLHMTIDSSKKYQTIQGFGSTFSDASGANLKSLPDKLSDLIMKQYFSDTGLNLQFGRVPIASTDFSGRVYSYNDVANDYSMQNFNLTKEDFQWKIPYIKNAQKYNPNLKLFAAPWAAPGWLKTTKEMTGPGALNGKAGDNYHQAYAKYFVRFLEEYGKSGISFWGLSTQNQPTLGSDKKNKIQSTLFTAETQRDFIKTDLGPALAASSSGKDVKLLILDDNRGNLPKWADTVLNDMDAAKYVGGIGVHAYQDGETDNHLDETHKKHPNFFILGTEASEGYGSKDTHVDYGNWDRAADTASDILDNMNNWMTGWTERNLILDALGGPSWVSDYTDAPVIAFPAMAQFYKQPMFYAIAHFSHFIKPGAVRIDHSLNVIELEVETTAFLNPDGSKVIVMLNKGSLVSTEHTVVVQDAADSRNHYHFTLPHRAITTLYIQTSQF”: “not soluble”; “MYVGYLGPSGSFTHNAALKAFPEASLVSLGTITEVIKSYEEGRVDYAVIPVENSIEGSVHESLDYLFHQADIRAVAEIVQPIKQQLMASKHHAKIEKIFSHPQAIAQGKKYIKDHFPHAKIETTASTAFAARYVADNPDQPYAAIAPHAAAKEYGLEILAKDIQEIEKNYTRFWLLGSTVP”: “not soluble”. On to “MSLAVVRTINGDVSPDTLGVVNAHDHLIRVGAGEVYIDPDHLLDDVDKAAQEATYFVEASKSWAAGGTIIDMCPASSGRGVLKTLQVVEKVPGLQVVQATGFHQQKVYLEWRQSWVNQYTVTQIADLLIADIVEGIDRFDYMGPIVERTNVKAGVIKWATAYGKITEWEKKSGQAVAIASKETGCPINTHVTAGTCGPEQARFLVDQGVDPAKIAIGHMQRNWDPWVHEQICKLGCYVELDGTNRIKYVPDNTRVNLVKTLGEKGYGKQILLGTDSGKASYQKVYGSVSGIDYDPAVFCPRLVEDEGVDRDYVNDLLINNAATFFGFEPLAEGHHHHHH”, for which the “soluble on expression in E. coli” value is recorded as “not soluble”. Consider “SLRFVDEYRAPEQVMQLIEHLRERASHLSYTAERPLRIMEVCGGHTHAIFKFGLDQLLPENVEFIHGPGCPVCVLPMGRIDTCVEIASHPEVIFCTFGDAMRVPGKQGSLLQAKARGADVRIVYSPMDALKLAQENPTRKVVFFGLGFETTMPTTAITLQQAKARDVQNFYFFCQHITLIPTLRSLLEQPDNGIDAFLAPGHVSMVIGTDAYNFIASDFHRPLVVAGFEPLDLLQGVVMLVQQKIAAHSKVENQYRRVVPDAGNLLAQQAIADVFCVNGDSEWRGLGVIESSGVHLTPDYQRFDAEAHFRPAPQQVCDDPRARCGEVLTGKCKPHQCPLFGNTCNPQTAFGALMVSSEGACAAWYQYRQQESEA”, for which the “soluble on expression in E. coli” value was “soluble”. In the case of “MTAAARTPAFYLDLGVPDTVMGRFEMLSVIMILYFRRTKSSGVSGQEIAQEIVDAFFQDIDHSIRELGIGDQGVPKRMKKFAGMFYGRLESYAAALDASDCAALAAALRRNIYPQVDDEAPEMEGLAGWMMETSDALAAQSEETIATGSLTLPLPILEHHHHHH” it was “not soluble”; in that of “MKMKKITAMSMAALMAATMIPSVPVMADGGGKVYYLNFKPEQDEAWQNLAKAYTEETGTDVTVVTAASGQYETTLQSEMAKSDAPTLFQVNGPVGLKNWKDYCYDLKDADITKELTSDAYELKDGDAVAGIAYVIESYGLITNKTLLEKAGYTLDDIKSFDDLKKVADDIQARKDEIGVKGAFTSAGMDGSSDWRFKTHLANLPIYYEYKADGIDDTEAIKGTYLDQYKNVFDLYITDSTCDGSELSAKTADDSRNEFVNGDAVFYQNGSWEYAELAKTYSDDELAMIPIYFGVDDENEGLATGTENYWCVNKNASEEDVQATLDFMNWCVTSEAGTKSMSEDMGFTIPFKTAVAPTNVFVKQDAEYTEAGLTPVSWNFTTMPSEEWKNGLGTALTAYAAGTGDWDAVVSAFVDGWATEKALSE”, “not soluble”.
